In a protein production outcome set (Wang et al. 2014) one finds protein production data, which are given here for 28 sequences.

The nature of this series: label from the status in PepcDB records.
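Further: failed if final PepcDB status was selected cloned or expressed and not failed if soluble or beyond.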

Take “VGKLKIYFGFAAGVGKTYAMLSDAKDQLAAGVDVVAGYIEPHAREETLRMLEGIPIIPPKAINHKNIALKEFDLDEALKRKPELILVDELAHTNASGVRNKKRFQDVEELLQAGIDVYTTVNVQHIESLNDIVEGITKVAVRETIPDYVFDEADRVKLIDIEPDELLKRLEQGKIYQPARAKTAMQNFFTRENLKLLREIAMRKAADRISHEYDQTGIYPE”: the protein production result was “not failed”.
The same measure for “VGPHAALMDATYRHQRRIYDITRRHFLLGRDELIAALAPPPGARVLEIACGTGRNLDLIDRRWPGLRLYGLDISEEMLRTARARLGTRARLAQGDATDFDARALFGAARFERIVISYALSMIPDWRPALAHAASLLSKEGELHVVDFGDQAGLPRWFRTGLRGWIGRFHVEPRDDLGAALAEVAAGVG”: “failed”.
The same measure for “VHVEDALTYLDQVKIRFGSDPATYNGFLEIMKEFKSQSIDTPGVIRRVSQLFHEHPDLIVGFNAFLP”: “not failed”.
The same measure for “VIKKEGPGWRIIFDSSRDNFSTLIGGETWAIELDKSEWKILVEVVMELCDQYKLVKEQLMGDEDITLELERRPWLAILNGDQYGWNLRLILSASGLFNRGAEVYWPRHVTNNVVNAMRSMWDSDYL”: “not failed”.
“VISSDVIRGYVDTIILSLLIEGDSYGYEISKNIRIKTDELYVIKETTLYSAFARLEKNGYIKSYYGEETQGKRRTYYRITPEGIKYYKQKCEEWELTKKVINKFVKELESNGDN”: the protein production entry was “not failed”.
The value for “VKFLTVNDDILSMPQARNFCASAGGYLADDLGDDKNNFYSSIAANTQFWIGLFKNSDGQFYWDRGQGINPDLLNQPITYWANGEPSNDPTRQCVYFDGRSGDKSKVWTTDTCATPRPFICQKHRYDSDHKPNTIGDA” was “not failed”.
The same measure for “VLAEYASRIVSAEEAVKHIKNGERVALSHAAGVPQSCVDALVQQADLFQNVEIYHMLCLGEGKYMAPEMAPHFRHITNFVGGNSRKAVEENRADFIPVFFYEVPSMIRKDILHIDVAIVQLSMPDENGYCSFGVSCDYSKPAAESAHLVIGEINRQMPYVHGDNLIHISKLDYIVMADYPIYSLAKPKIGEVEEAIGRNCAELIEDGATLQLGIGAIPDAALLFLKDKKDLGIHTEMFSDGVVELVRSGVITGKKKTLHPGKMVATFLMGSEDVYHFIDKNPDVELYPVDYVNDPRVIAQNDNMVSINSCIEIDLMGQVVSECIGSKQFSGTGGQVDYVRGAAWSKNGKSIMAIPSTAKNGTASRIVPIIAEGAAVTTLRNEVDYVVTEYGIAQLKGKSLRQRAEALIAIAHPDFREELTKHLRKRFG”: “not failed”; for “VLWISSSPVLQRFDKPLLQYISKDVNVAQWEYRHHRDEGSSIDEAVDLLAEFMGQCPYPVNLAGHAAGGAIALSFARRYPKKVRSLSLLAVASQPANTWHAHYYLQRQLFTISREQILANTVRNLFGEQPSHTTKKLVAVLDRDLEQSPLLHSLFKLVHLPEGGVNMPLMICGSKNDPIVSSTTLQDWSNCLKPEDHLWECPKGHHFFHYFYPQTVGDQLLNFWQ”: “failed”; for “VMEIEARLEDVRQRIADVAEKSGRKAADVALVAVSKTFDAEAIQPVIDAGQRVFGENRVQEAQGKWPALKEKTSDIELHLIGPLQSNKAADAVALFDVVESIDREKIARALSEECARQGRSLRFYVQVNTGLEPQKAGIDPRETVAFVAFCRDELKLPVEGLMCIPPAEENPGPHFALLAKLAGQCGLEKLSMGMSGDFETAVEFGATSVRVGSAIFGSR”: “not failed”.
The same measure for “VNSVAARVTELTGREVAAVAERGHSHRWHLYRVELADGTPLFVKALPDDAPALDGLFRAEALGLDWLGRSFGSPVPQVAGWDDRTLAMEWVDERPPTPEAAERFGHQLAAMHLAGAESFGATWDGYIGPLPMDNTPRSTWPEFYAEQRILPYLRRAADRGALTPGDVRLVEKVLDALDHLAGDPEPPARIHGDLWNGNVLWQDDGAVVIDPAAHGGHREADLAMLALFGLPYLDRVRDAYNEVAPLAEGWRARIPLHQLHPLLVHVCLFGAAYRTTLVDTARAALRA”: “not failed”; for “VPPPGTMVMVERKVGSWVDGQPIDLQRDWRSWEQLPDSLKVAVIAGEDQHFAEHHGFDLPAIQQALAHNERGGSIRGASTLSQQVAKNVFLWSGRSWLRKGLEAWFTLLIETLWTKQRILEVYLNSAEWGPGVFGAQAAARYHFGLDAERLSRTQASQLAAVLPSPLKWSAARPGPYVRQRAAWIRQQMWQLGGDDYLLRLER”: “failed”.
Take “VQIKNATAIVTGASSGIGLAFASLLAQKGYNLLLIARNINKLNDLAKTLSTQYDTQCNVLSIDLSEENASKKVLEYIITNNLNISVLINNAGFSGNYKFLEADWSQLSKELNVMSIAVTELCYLIAPLMEKNSWGRIINVSSGAAYLPPTQSLLYTGLKSYVLNFSQSLDMELKPKGINVTALCPGFTRSEFHNTMGTNKQVSKVPNFLWQAPDQVA”: the protein production entry is given as “failed”.
Consider “VQTPALIIVTGHPATGKTTLSQALATGLRLPLLSKDAFKEVMFDGLGWSDREWSRRVGATAIMMLYHTAATILQSGQSLIMESNFRVDLDTERMQNLHTIAPFTPIQIRCVASGDVLVERILSRIAQGARHPGHCDDRSPADLELVRSRGDIPPLPLGGPLLTVDTTFPEQIDMNAIVQWVRQHLQSGTAFL”, for which the protein production result is recorded as “not failed”.
Turning to “VRPDGRGKVTGELKYMTDLSFPGMLYGKVLRSAYPHAEIVSVCTIKAEKMEGVQAVVTHKDVPGLNRFGIVIPDQPVLCEDRVRYVGDAIAAVAAETEEIAEAALELIQVEYKELEVMDSPEKALRPNAQRLHEDGNILHRAFFSNGDVEEGFQASDTVFEETYELPRQMHTYMETEGGVAVPEDDGGFTMYAGTQHGYKDRFQLARIFDIPEEKIRIVSSPMGGSFGGKDELNIQPYAALLALKSGRPVKIHQTRKESVRSGIKRHPMKITIKTGADHSGNLLAHDVKIVADTGAYATLGPAVLDFSVEHAAGPYRIPNIRTEGISVFTNNGVAGEFRGFGGNQITFALETHLDRLSGMLGIDPLELRRKNIRKPHDLGPLEHRIAPTDGAAQVLNAISKSPILKKTSRNCGYLQRGTGAAITMHGGGLGFGRMDAAGGRLSLSSEGKITASFGFEECGQGILAAIEQIVMEELGCAAEDISIVIGDTAKVPKSGSSTASRGTSMVWHAIQRLKKPFLAQLKKRAAEWSGCSAENLIPGAAGLRDKNTKALVVTYKELAEKGPLAEETAFDFPTTPDPVVGGHFLYSFGAAAVEVEVDLLTGDVKLIDCEHAIAAGPVVSPQGYRGQIEGGAAMALGYTLMEEAKMTDGRYAAENLDHYLIPGIKDVPDMKLIAIEDLMKGDVYGPRGVGEIGTIAITPAIVKAVHDAVGCWINKLPISREELLEAIDRKGL”, the protein production entry is “failed”.
Regarding “VRPGDTEIDKLVALIDAADKVTLFCGSGTAGAHAEVMEFAEKIKSPVGHALRGKEWIQYDNPYDVGMSGLLGYGAAYEATNECDLLILLGTDFPYNAFLPTDVKIAQVDVRPERLGRRSKLDLAVWGDVRETLRCLIPRVKPKENRRFLDKMLKKHADALEGVIKAYTRKVEK”, the protein production result is given as “failed”.
The same measure for “VSDRPAGRMPLTVHRNVGRWLSEILHASIRDTGVSSRIEFVRRTLHGWVREEYSETELPNAVYRNLYFPVLDAQPAHAGSGKIETISECDRLKNLVRNVTDTLVENYPQGLESEALLIALDGVKLELARIRKDIEMYGDPRKR”: “not failed”; for “VSIPANNSPVRLALIGAGRWGKNYIRTIAGLPGAALVRLASSNPDNLALVPPGCVIESDWRSVVSAPEVEAVIIATPPATHAEITLAAIASGKAVLVEKPLTLDLAEAEAVAAAAKATGVMVWVEHTQLFNPAWEALKADLTSIGPILAVRSEAGNHGPYRPGGVPMLWDWGAHDVSMVLDLMGRDPDSTSASWAARGEKDGGEAGDVTLTLAFSTVEAHIRLCNTMDKCRRLAVFGEAGTLVMDDRATDKLTLHPPQPDGNWPVGQGHALTVTDEMPLTRAVRLFAGAVRQPEPGPSPLELGLRVVRVLGACS”: “not failed”.
Turning to “VSVIMPVLNEERHLRGAVQAILAQEYDGEMEVVIAIGPSSDRTEEIAAELVREDPRVHTVPNPTGRTPAALNAAIKASRHPVVVRVDGHGMLSPNYIATAVRLLAETGAQNVGGIMHAEGENDWEHAVAAAMTSKIGVGNAAFHTGGEAGPAETVYLGVFRREALEQQGGYNEEFIRAQDWELNFRIREAGGLIWFSPELKVSYRPRPSVRALAKQYKDYGRWRHVVARYHEGSINLRYLAPPTAVCAIAAGVVVGLALTPWGLVVPGGYLAAIALGS”, the protein production entry is given as “failed”.
The same measure for “VTLLVKSPNQRHRDLELSGDRGWSVGHLKAHLSRVYPERPRPEDQRLIYSGKLLLDHQCLRDLLPKQEKRHVLHLVCNVK”: “not failed”; for “VTSDPGTAAPVKRTAEQSRSLIVDAAGRAFATRPYREITLKDIAEDAGVSAPLIIKYFGSKEQLFDALVDFRAAAEIVFSGPLDGLGERMVSMFARPLEPYKPLSLNILFMSGPSEESSRKLRANYSAQMIDALAERLPGRDARLRAELVMSMLTGLAVMRRKMMQEHATGTPEEVVAHYAPLVQELLDG”: “not failed”.
The same measure for “VVQRAAETYDLLKQRTEELRRANAQMSLLTVLVQVTQASNSLEAILTPIATAFAESFAVNACILQMLEGQTLSTIQGFYSQQGTVNNWLNQDPLTNEAIATGQIQVAANIAKDPKLASISQYQDNGIQSHVVIPITYRNEMLGVLSLQWQQPISLREDELTLIHLSAQLVAIALTSSRCSL”: “not failed”.
On to “WKPELDELARRENFAQQMGGIDKVKRQHDQGRLTVRERIDRLSDAGSFHEIGAVAGLGEYDANGELINLTPANCVFGRAKIDGRTVVVVGDDFTVRGGSADASIHAKPQMAEEMAHDYRLPIIRVIEGSGGGGSVRTIESKGAANLPGGVDGTRWYWYTTAN”, for which the protein production result is on record as “failed”.
The same measure for “WRGIRQRKLHAEELLRLAMAHLRNQGKPVRIVDIAAGHGRYILESLRGVEPLPESILLRDYSDINVRDGSLLIEQKDLEDIARFVKGDAFDRNDLATLDPKPTLAVVSGLYELFSSNQMVGDSLAGLAAAVEPGGYLVYTGQPWHPQLELIARALTSHREGQAWVMRRRSQSEMDQLVEAAGFRKITQRVDEW”: “failed”.
As to “WTCNKFRCGEKRLTRSLCACSDDCKDQGDCCINYSSVCQGEKS”, the protein production entry is “not failed”.
The value for “YAMSIYAAQHDVRIVNPYFVPTSSIRKALKRALNRGTKVEIMISSKSDIPFTPDASLYAVQKLMKKGAMIYLYNGGFHHSKIMMVDDLFCTVGTANLNSRSLRYDYETNAFIFDKDITQQLNDVFEADMLHCTRLTPEMWKQKSAWKKFKCWFANLFTPFL” was “failed”; that for “YLYFNSDSFILLIAPTRSGKGVGVVIPNLLVYNQSMVILDLKQENFSITSKYRAKYGQQVFLFNPFTENGQTHRYNPLSYVREGDCKIGDILTITASFYPIDDLKNSFWNNQASNLFLGLALMISETPSLPFTIGELLRQSSGKGKPLKEYLQGIMDDREKSSSPLSESCIDALNRFIALTDNSLSNVLASFNAPLTLWANPLFDAATSANDFDLRELRKKKMTVYIGITPDYLEQAERILNLFFSQLININTKELPEHNPELKYQCLLVMDEFTAMGRIGILAKSVSYMAGYGLRLLTIIQAPSQLDSVYGKEEARTYKTNHAGQILFAPRENEDAEEYSKAIGYKTVKAKSNSKTRGELKQTDSTSDQRRAVMLPQEIKEIGMWKEIICIENLKPIFCKKVQYFNDPVFIDRLKEVSS” was “failed”.
Turning to “YQAIYRRATTYLAMGRGKAAIVDLERVLELKPDFYGARIQRGNILLKQGELEAAEADFNIVLNHDSSN”, the protein production entry is reported as “failed”.
The value for “YTSADNTWEPEENCDCPNLIQKFEESRAKSKKRGEKKPKCEEIQKLRGYERGLELAEIVGATDVTGDIKYLVRWQFCDEFDLVPSAQIVEKDPQMLIDYFQK” was “failed”.
